Results on one substance are retold here after publication PMC10519996.

Data set [1] has as its system Q2XVP4. Put plainly: cryo-EM structure; single-particle cryo-EM of porcine tubulin (5 mg/ml) incubated with 1.5 mM GMPCPP on ice for 20-30 min, peak fraction of gel filtration (Superdex 200 Increase 3.2/300), 1-2 μM on graphene grids, no cofactors or depolymerizing reagents; heterodimer map at 3.5 Å; tetramers by 2D ….
For data set [2], the system named is Q2XVP4. Kind of data set: cryo-EM structure; single-particle cryo-EM of porcine tubulin incubated with GDP on ice, peak fraction of gel filtration (Superdex 200 Increase 3.2/300), 1-2 μM on graphene grids, no cofactors or depolymerizing reagents; heterodimer maps at 3.6 Å and 3.9 Å; tetramers by 2D and 3D classification ….

As for porcine αβ-tubulin heterodimer, the “percent of the particles per micrograph that are tubulin hexamers (three heterodimers)” value was 64%, 29%, and 7% in data set [1]; 62%, 32%, and 6% in data set [2]. The “percent of the particles per micrograph that are tubulin tetramers (two heterodimers)” value was 64%, 29%, and 7% in data set [1]; 62%, 32%, and 6% in data set [2].
